This is an account of results in paper PMC12687561 (2025).

The target in experiment [1] is T1, HHV-6B Putative OX-2 membrane glycoprotein homolog (U85) peptide on HLA-DRA*01:01 / HLA-DRB1*03:01 (human).
T1 peptide: KINNLDVDSKLYFHIKH
Put plainly: multimer staining.

Experiment [2] concerns the target T2, HHV-6B Large structural phosphoprotein (U11) peptide on HLA-DRA*01:01 / HLA-DRB1*03:01 (human).
T2 peptide: SLPSISIDTKRPSADL
Kind of experiment: multimer staining.

B1: U85.2 (TCR)
alpha TRAV13-1 TRAJ29 CDR3: CAATNSGNTPLVF
beta TRBV20-1 TRBJ1-5 CDR3: CSARRGGGPQHF
For the molecule B1, the binding result in experiment [1] is “recognises”.

B2: U11.1 (TCR)
alpha TRAV12-1 TRAJ49 CDR3: CVVNIFTGNQFYF
beta TRBV19 TRBJ1-4 CDR3: CASSFRGGEKLFF
Take B2: in experiment [2], the binding result is on record as “recognises”.

B3: U85.1 (TCR)
alpha TRAV13-1 TRAJ29 CDR3: CAASNSGNTPLVF
beta TRBV20-1 TRBJ1-6 CDR3: CGNRVGNSPLHF
With B3, in experiment [1], the binding result is “recognises”.
